This assay deals with T1, 人Tim-3胞外区 (human, UniProt Q8TDQ0 22-202).
T1 construct: extracellular domain; also called T细胞免疫球蛋白黏蛋白分子3
T1 sequence (looked up): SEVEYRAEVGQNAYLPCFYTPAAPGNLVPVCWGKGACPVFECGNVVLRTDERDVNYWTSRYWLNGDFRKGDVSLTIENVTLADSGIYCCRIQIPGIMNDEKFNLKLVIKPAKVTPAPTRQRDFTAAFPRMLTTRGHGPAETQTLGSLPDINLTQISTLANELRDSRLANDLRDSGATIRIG
The experiment in a line: hybridoma screening, indirect ELISA. (ELISA stands for enzyme-linked immunosorbent assay.)

The source of these data is patent CN108101990A (UNIV ZHEJIANG, dated 2018).

B1: 抗人Tim-3单克隆抗体CDT1 (antibody, V domains shown)
VH: VKLQESGGGLVQPGGSLRLSCATSGFTFTDYYMSWVRQPPGKALEWLGFIRNKANGYTTEYSASVKGRFTISRDYSQSILYLQMNTLTAEDSATYFCARDLDYWGQGTTVTVSS
VL: NIMMTQSPSSLAVSAGEKVTMSCKSSQSVLYSSNQKNFLAWYQQKPGQSPELLIYWASTRVSGVPDRFTGSGSGTDFTLTISNVQAEDLAVYYCHQYLSLRTFGGGTKLEI
notes: also called CDT1抗体
For B1, the binding result is recorded as “binds”.
